Patent US20110053139A1
Like-named read-outs stand apart in the source and are kept apart here.

How the values were obtained:
[1] = target: Herpes Simplex virus type 1 (HSV-1), purified virus; assay: SH-SAW biosensor (325 MHz), 204-4 mAb; HSV-1 alone at 3.6×10^6/µl
[2] = target: Coxsackie virus B4 (JVB strain) viral particles (Coxsackie virus B4 (JVB strain)) (UniProt P08292); assay: SH-SAW biosensor (325 MHz), 204-4 mAb; Coxsackie B4 admixed with HSV-1 at equal concentration, high end of range
[3] = target: Coxsackie virus B4 (JVB strain) viral particles (Coxsackie virus B4 (JVB strain)) (UniProt P08292)
[4] = target: Coxsackie virus B4 (JVB strain) viral particles (Coxsackie virus B4 (JVB strain)) (UniProt P08292); assay: SH-SAW biosensor (325 MHz), 204-4 mAb; Coxsackie B4 admixed with HSV-1 at equal concentration, low end of range

Chain of UniProt P08292 (P08292 2-849): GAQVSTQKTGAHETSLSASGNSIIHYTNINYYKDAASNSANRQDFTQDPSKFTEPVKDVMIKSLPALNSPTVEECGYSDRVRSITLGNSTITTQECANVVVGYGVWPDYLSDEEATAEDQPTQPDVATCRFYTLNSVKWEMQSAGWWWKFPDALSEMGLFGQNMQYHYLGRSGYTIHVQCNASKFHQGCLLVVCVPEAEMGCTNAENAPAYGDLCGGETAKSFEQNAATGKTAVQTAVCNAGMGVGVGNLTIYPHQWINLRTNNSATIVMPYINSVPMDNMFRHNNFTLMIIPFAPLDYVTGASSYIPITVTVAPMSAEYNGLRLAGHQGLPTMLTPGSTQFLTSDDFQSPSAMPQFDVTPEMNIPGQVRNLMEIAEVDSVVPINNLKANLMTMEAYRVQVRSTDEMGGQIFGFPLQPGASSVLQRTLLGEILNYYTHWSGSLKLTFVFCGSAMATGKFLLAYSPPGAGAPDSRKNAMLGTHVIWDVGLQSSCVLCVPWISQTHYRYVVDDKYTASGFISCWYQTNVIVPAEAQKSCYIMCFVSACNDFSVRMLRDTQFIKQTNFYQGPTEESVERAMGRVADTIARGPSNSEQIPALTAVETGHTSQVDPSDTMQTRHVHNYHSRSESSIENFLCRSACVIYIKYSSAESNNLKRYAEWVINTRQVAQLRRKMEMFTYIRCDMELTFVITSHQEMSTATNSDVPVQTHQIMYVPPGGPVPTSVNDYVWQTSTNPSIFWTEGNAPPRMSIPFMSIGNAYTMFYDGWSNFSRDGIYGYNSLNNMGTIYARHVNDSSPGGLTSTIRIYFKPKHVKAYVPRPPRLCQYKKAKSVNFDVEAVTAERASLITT

IgG2a isotype monoclonal antibody (mAb) directed against the JVB strain of Coxsackie virus B4, produ
phase differential mass shift Δφ [1]: 0.64 degrees
phase differential mass shift Δφ [2]: 7.24 degrees
phase differential mass shift Δφ [3]: 0.95 to 6.99 degrees
phase differential mass shift Δφ [4]: 1.09 degrees
